# Biological target: T1, DnaA wild-type (Escherichia coli) (UniProt P03004)
# T1 sequence: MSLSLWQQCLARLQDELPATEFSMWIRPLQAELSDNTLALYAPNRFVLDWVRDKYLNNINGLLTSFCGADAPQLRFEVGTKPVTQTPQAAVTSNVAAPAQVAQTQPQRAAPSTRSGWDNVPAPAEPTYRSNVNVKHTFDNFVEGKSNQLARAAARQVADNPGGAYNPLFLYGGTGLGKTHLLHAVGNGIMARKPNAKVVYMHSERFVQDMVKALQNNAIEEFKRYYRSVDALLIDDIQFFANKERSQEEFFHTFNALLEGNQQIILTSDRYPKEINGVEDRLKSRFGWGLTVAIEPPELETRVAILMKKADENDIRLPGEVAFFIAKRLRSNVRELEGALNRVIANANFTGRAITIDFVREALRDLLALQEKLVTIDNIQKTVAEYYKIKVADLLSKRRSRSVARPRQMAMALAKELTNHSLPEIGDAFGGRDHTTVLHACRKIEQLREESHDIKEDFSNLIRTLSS
# Test: EMSA
# Conditions: EMSA oriC/PdnaA: 20 mM HEPES-KOH pH 8.0, 5 mM Mg acetate, 1 mM EDTA, 4 mM DTT, 0.2% Triton X-100, 5% glycerol, 0.5 mg/ml BSA, 2 mM ATP, 20 C; DARS1: 20 mM …
sequence,measurement,value
GGGGATAGGGGCTGGAGACAGTTATCCACTATTCCTGTGGATAACCATGTGTATTAGAGTTAGAAAACACGAGGCAAGCGAGAGAATACGCGGCTTGCACG (double strand) [DARS1],binding,binds

# Reference: article PMC5397419
